Data from patent publication CN117866903A.

Target: T1, 生物素化的IL-17A of the IL-17A[Biotinylated] : IL-17RA Inhibitor Screening ELISA Kit (ACROBiosystems, EP-139) (UniProt Q16552)
T1 sequence (biotinylated, looked up): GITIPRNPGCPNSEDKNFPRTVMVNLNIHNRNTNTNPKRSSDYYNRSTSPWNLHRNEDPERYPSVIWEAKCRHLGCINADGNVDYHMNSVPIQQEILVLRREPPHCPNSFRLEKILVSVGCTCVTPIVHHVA
Test: competition ELISA kit (ACROBiosystems EP-139): IL-17RA coated, biotinylated IL-17A, culture supernatant diluted 5-fold

结合抑制率: 58%
B1: IL-17Nb secreted by C3-H10-MSC (1-C3-3-H10: Fc融合蛋白, VHH-(GGGGS)3-VHH-IgG4 Fc) (Fc fusion)
chain: DVQLVESGGGLVEPGESLRLSCAAPGEDLGYYAIAWFRQAPGKEREVVSCVTSSGSSTNYLSSVKDRFTISIDNAKNTVYLQMNSLKPEDTAVYYCASTILLCSDYISAFGTWGQGTQVTVASGGGGSGGGGSGGGGSEVQLVESGGGLVQPGGSLRLSCAASGFSIHIYAMGWYRQAPGKQRELVATITRGGVTNNADSVKGRFTISRDNAKNTAYLQMNSLKPEDTAVYYCNAGGTNGGYWGQGTQVTVSSAPEFLGGPSVFLFPPKPKDTLMISRTPEVTCVVVDVSQEDPEVQFNWYVDGVEVHNAKTKPREEQFNSTYRVVSVLTVLHQDWLNGKEYKCKVSNKGLPSSIEKTISKAKGQPREPQVYTLPPSQEEMTKNQVSLTCLVKGFYPSDIAVEWESNGQPENNYKTTPPVLDSDGSFFLYSRLTVDKSRWQEGNVFSCSVMHEALHNHYTQKSLSLSLGK
